Measurements: publication PMC4783942, “Microwave-Assisted Synthesis of Glycoconjugates by Transgalactosylation with Recombinant Thermostable β-Glycosidase from Pyrococcus” (International Journal of Molecular Sciences, 2016)

Substrate: CC(=O)N[C@@H]1[C@@H](O)[C@H](O)[C@@H](CO)O[C@H]1NC(=S)NCCNC(=O)OC(C)(C)C
Test: transgalactosylation kinetics, HPLC
Type: biochemical, Pyrococcus woesei
Conditions: acceptor substrate varied, donor lactose, 85 °C thermal heating, citrate-phosphate buffer pH 5.5

B1: β-glycosidase from Pyrococcus woesei (DSM 3773) (Pyrococcus woesei; T436I) (protein)
chain: MFPEKFLWGVAQSGFQFEMGDKLRRNIDTNTDWWHWVRDKTNIEKGLVSGDLPEEGINNYELYEKDHEIARKLGLNAYRIGIEWSRIFPWPTTFIDVDYSYNESYNLIEDVKITKDTLEELDEIANKREVAYYRSVINSLRSKGFKVIVNLNHFTLPYWLHDPIEARERALTNKRNGWVNPRTVIEFAKYAAYIAYKFGDIVDMWSTFNEPMVVVELGYLAPYSGFPPGVLNPEAAKLAILHMINAHALAYRQIKKFDTEKADKDSKEPAEVGIIYNNIGVAYPKDPNDSKDVKAAENDNFFHSGLFFEAIHKGKLNIEFDGETFIDAPYLKGNDWIGVNYYTREVVTYQEPMFPSIPLITFKGVQGYGYACRPGTLSKDDRPVSDIGWELYPEGMYDSIVEAHKYGVPVYVTENGIADSKDILRPYYIASHIKMIEKAFEDGYEVKGYFHWALTDNFEWALGFRMRFGLYEVNLITKERIPREKSVSIFREIVANNGVTKKIEEELLRG
notes: N-terminal His6-tag (pETDuet-1, tag kept), E. coli Rosetta2(DE3)pLysS; cloned gene differs from AF043283.1 by T436I, as in P. furiosus E08095.1 / AAC44387.1
Km: 15.6 mM
